Laboratory results published in the supplement of paper PMC10126150.
± gives the standard deviation of the averaged measurements.

System: ATP
Experiment: switch fluorescence ratio, 500 uM ATP over buffer (Cy3 cluster intensity, sum of 5 cycles each) (fold (ratio)); higher = stronger signal-on switching upon ATP binding; sequences stand for … in TCGTCGGCAGCGTCAGATGTGTATAAGAGACAGTTTTTTTTTTTTTTTTTTTTTTTTT…TC
Conditions: aptamer strand: ATP DNA aptamer (quencher-CACCTGGGGGAGTATTGCGGAGGAAGG + anchor), 100 nM annealed; ATP concentration: 500 uM
Method in brief: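 Values give the fluorescence ratio for each switch-domain sequence, averaged from per-cluster ratios of summed target-cycle to summed buffer-cycle Cy3 intensity. The Cy3-labelled switching-strand clusters sat on a modified Illumina MiSeq flow-cell, were annealed to 100 nM quencher-labelled ATP aptamer, and were imaged in selection buffer, then after 15 min with 500 uM ATP at 22 °C. Five cycles ran with NaOH stripping and re-annealing between them, and clusters outside 100-1000 RFU were excluded.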
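Further: ATP exposure 15 min at 22 °C before imaging.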

| Sequence | switch fluorescence ratio |
| --- | --- |
| GATATCCAGC | 1.02 ± 0.023 |
| GATATCCCGG | 0.987 ± 0.022 |
| GATATCGATG | 1.029 ± 0.0089 |
| GATATCGCCG | 1.022 ± 0.0034 |
| GATATCGTCT | 1.03 ± 0.028 |
| GATATGGGGA | 0.994 ± 0.044 |
| GATATGGGGT | 0.9828 ± 0.0085 |
| GATATTTGAT | 0.995 ± 0.042 |
| GATCAATTGG | 1.02 ± 0.026 |
| GATCACTGTT | 0.996 ± 0.062 |
| GATCATCCTT | 1.03 ± 0.0052 |
| GATCATCGAT | 1.02 ± 0.013 |
| GATCATTAGA | 1.05 ± 0.061 |
| GATCATTGAG | 0.991 ± 0.012 |
| GATCATTGTT | 1.007 ± 0.0088 |
| GATCATTTTT | 0.984 ± 0.021 |
| GATCCAGCGG | 1.02 ± 0.025 |
| GATCCTAAGC | 0.99 ± 0.014 |
| GATCCTGGGC | 1.03 ± 0.015 |
| GATCGAAGTT | 0.984 ± 0.033 |
| GATCGAGGTC | 1.0474 ± 0.001 |
| GATCGGGAGG | 0.9844 ± 0.0089 |
| GATCGGGGAA | 1.01 ± 0.02 |

| Sequence | switch fluorescence ratio |
| --- | --- |
| GATCGGGGGT | 1.01 ± 0.027 |
| GATCGTATTC | 1.05 ± 0.088 |
| GATCTAGAGG | 0.994 ± 0.019 |
| GATCTCAGAG | 0.967 ± 0.014 |
| GATCTCCGGC | 1.63 ± 0.063 |
| GATCTGGATA | 0.9964 ± 0.0013 |
| GATCTGGTAC | 1.06 ± 0.037 |
| GATCTTATCT | 1.03 ± 0.022 |
| GATCTTGATG | 1.02 ± 0.036 |
| GATCTTTCCG | 1.08 ± 0.059 |
| GATCTTTCGT | 1.01 ± 0.031 |
| GATCTTTTTG | 1.02 ± 0.014 |
| GATGAAAGGG | 1.22 ± 0.46 |
| GATGAACCTA | 1.04 ± 0.024 |
| GATGAATGTT | 0.9766 ± 0.0041 |
| GATGAGAATT | 0.98912 ± 0.00024 |
| GATGAGGATT | 1.01 ± 0.011 |
| GATGAGGTAT | 0.9899 ± 0.002 |
| GATGATCACA | 0.951 ± 0.036 |
| GATGATCAG | 0.978 ± 0.035 |
| GATGATGTCC | 0.96 ± 0.01 |
| GATGCAAGAG | 3.78 ± 0.7 |
| GATGCAATCT | 1.44 ± 0.08 |

| Sequence | switch fluorescence ratio |
| --- | --- |
| GATGCAGCAA | 1.22 ± 0.062 |
| GATGCCGGGG | 1.05 ± 0.095 |
| GATGCCTTTG | 0.994 ± 0.018 |
| GATGCGGGAC | 1.34 ± 0.07 |
| GATGCGGGGC | 1.06 ± 0.03 |
| GATGCGTCAC | 1.06 ± 0.056 |
| GATGCGTGCT | 0.993 ± 0.055 |
| GATGCGTTCG | 1.01 ± 0.018 |
| GATGGAGTTA | 1.01 ± 0.047 |
| GATGGATAAG | 1.009 ± 0.0024 |
| GATGGATTCG | 1.01 ± 0.026 |
| GATGGCAGCA | 1.021 ± 0.0086 |
| GATGGCTTGG | 0.987 ± 0.018 |
| GATGGGAGTT | 1.01 ± 0.014 |
| GATGGGCAGG | 1 ± 0.024 |
| GATGGGGATA | 1.02 ± 0.013 |
| GATGGGGGCC | 0.998 ± 0.026 |
| GATGGGGGCG | 1.03 ± 0.093 |
| GATGGGGGGA | 1.01 ± 0.029 |
| GATGGGGGTT | 1 ± 0.012 |
| GATGGGGTAG | 0.994 ± 0.039 |
| GATGGGTGAC | 0.992 ± 0.024 |
| GATGGTAGTC | 0.994 ± 0.027 |

| Sequence | switch fluorescence ratio |
| --- | --- |
| GATGGTGAAA | 0.975 ± 0.039 |
| GATGGTGTTT | 1 ± 0.034 |
| GATGTAAGTG | 0.972 ± 0.02 |
| GATGTAATTG | 0.9822 ± 0.0094 |
| GATGTACGCA | 0.973 ± 0.075 |
| GATGTAGACT | 0.9818 ± 0.0033 |
| GATGTATAAA | 1.0015 ± 0.00099 |
| GATGTATGGA | 0.997 ± 0.027 |
| GATGTATGGG | 0.984 ± 0.015 |
| GATGTGAGGC | 1.14 ± 0.046 |
| GATGTGCAGA | 0.959 ± 0.038 |
| GATGTGCAGG | 0.9915 ± 0.0084 |
| GATGTGGTCT | 1.014 ± 0.0075 |
| GATGTGTCCG | 0.956 ± 0.086 |
| GATGTGTGGC | 0.974 ± 0.022 |
| GATGTTAGGG | 0.983 ± 0.026 |
| GATGTTCGGC | 1.05 ± 0.037 |
| GATGTTGGGA | 0.989 ± 0.016 |
| GATTAAATAC | 1.24 ± 0.064 |
| GATTAAGAAT | 1 ± 0.027 |
| GATTAGAAGG | 1 ± 0.026 |
| GATTAGGGTG | 1.01 ± 0.026 |
| GATTATAAGG | 1.007 ± 0.01 |

| Sequence | switch fluorescence ratio |
| --- | --- |
| GATTATAAGT | 0.99 ± 0.017 |
| GATTATATGG | 1 ± 0.039 |
| GATTATATTT | 0.997 ± 0.045 |
| GATTATCTGG | 0.984 ± 0.025 |
| GATTATGTTA | 0.9772 ± 0.007 |
| GATTATTTTC | 1.03 ± 0.061 |
| GATTATTTTT | 0.994 ± 0.028 |
| GATTCCGTCC | 1.177 ± 0.0046 |
| GATTCGTCGG | 1.01 ± 0.021 |
| GATTGAAGCC | 0.962 ± 0.064 |
| GATTGAGATT | 0.981 ± 0.033 |
| GATTGAGCCC | 0.971 ± 0.037 |
| GATTGAGGAG | 0.981 ± 0.03 |
| GATTGAGGGA | 1.01 ± 0.016 |
| GATTGAGGGG | 1.01 ± 0.017 |
| GATTGAGTTT | 0.9866 ± 0.0089 |
| GATTGCATGG | 1.02 ± 0.013 |
| GATTGCTCGT | 0.975 ± 0.028 |
| GATTGCTTTC | 1.02 ± 0.023 |
| GATTGGGACT | 0.975 ± 0.027 |
| GATTGGGAGC | 1.01 ± 0.037 |
| GATTGGGAGG | 1.03 ± 0.034 |
| GATTGGGCCA | 0.996 ± 0.017 |

| Sequence | switch fluorescence ratio |
| --- | --- |
| GATTGGGGGG | 1 ± 0.029 |
| GATTGGGTAG | 0.999 ± 0.02 |
| GATTGGGTGA | 0.972 ± 0.011 |
| GATTGGTACT | 1 ± 0.02 |
| GATTGTTTTA | 1.02 ± 0.016 |
| GATTTAAAGC | 0.984 ± 0.034 |
| GATTTACAGC | 1.02 ± 0.054 |
| GATTTAGTAC | 1.01 ± 0.067 |
| GATTTCAGTG | 0.974 ± 0.023 |
| GATTTCATCT | 0.995 ± 0.032 |
| GATTTCGGTC | 1.05 ± 0.056 |
| GATTTGATGG | 0.987 ± 0.045 |
| GATTTGGAAT | 0.986 ± 0.037 |
| GATTTGGATT | 0.993 ± 0.012 |
| GATTTGGTAG | 1 ± 0.023 |
| GATTTGTCGT | 0.986 ± 0.022 |
| GATTTTACGT | 1.021 ± 0.0067 |
| GATTTTAGTG | 0.969 ± 0.015 |
| GATTTTCATG | 1 ± 0.013 |
| GATTTTGCCG | 1.11 ± 0.1 |
| GATTTTGTGT | 0.98 ± 0.043 |
| GATTTTTATT | 0.988 ± 0.025 |
| GATTTTTCAT | 1 ± 0.034 |

| Sequence | switch fluorescence ratio |
| --- | --- |
| GATTTTTTCG | 0.997 ± 0.01 |
| GATTTTTTGG | 0.991 ± 0.034 |
| GCAAAAAAAC | 1.02 ± 0.067 |
| GCAAAAGGAG | 1 ± 0.059 |
| GCAAAGGGCG | 1.03 ± 0.034 |
| GCAAAGGGGG | 0.9758 ± 0.006 |
| GCAACCCGGA | 1.01 ± 0.012 |
| GCAACCCGGT | 1.028 ± 0.0037 |
| GCAACTTCGG | 0.992 ± 0.016 |
| GCAAGAGGGG | 1.06 ± 0.039 |
| GCAAGAGTGG | 1 ± 0.034 |
| GCAAGATTCA | 1 ± 0.021 |
| GCAAGGCGAG | 1.3 ± 0.031 |
| GCAAGGGGAT | 1.06 ± 0.11 |
| GCAAGGTTTT | 0.979 ± 0.027 |
| GCAAGTGGTG | 1.02 ± 0.03 |
| GCAATCTGGG | 1.38 ± 0.079 |
| GCAATGAGGG | 1.14 ± 0.034 |
| GCAATGGCAT | 0.987 ± 0.03 |
